Assay results as given in the supplement of paper PMC9112550, “Optimization of the antimicrobial peptide Bac7 by deep mutational scanning” (BMC Biology, 2022).

Test system: Escherichia coli TOP10
Assay: shrunken log2 fold change of peptide-encoding DNA abundance (4.5 h post-induction vs induction); higher = less antimicrobial activity (less host growth inhibition)
Conditions: time post-induction: 4.5 h; library: site-saturation at positions 5, 18, 19, 20
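Also: peptides expressed intracellularly from a pBAD plasmid library in pooled LB shake-flask culture, induced with 0.3% L-arabinose, DNA abundance read by NGS, three biological replicates, DESeq2 with apeglm shrinkage.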

Sequence | shrunken log2 fold change
RRIRARPPRLPRPRPRPDIFPRP | 0.148
RRIRARPPRLPRPRPRPDKSPRP | -0.169
RRIRARPPRLPRPRPRPDKVPRP | 0.0597
RRIRARPPRLPRPRPRPDMMPRP | 0.139
RRIRARPPRLPRPRPRPDNNPRP | -0.154
RRIRARPPRLPRPRPRPDNRPRP | 0.0425
RRIRARPPRLPRPRPRPDPCPRP | 0.428
RRIRARPPRLPRPRPRPDQMPRP | 0.386
RRIRARPPRLPRPRPRPDQPPRP | 0.0452
RRIRARPPRLPRPRPRPDRCPRP | 0.285
RRIRARPPRLPRPRPRPDRVPRP | -0.0545
RRIRARPPRLPRPRPRPDSPPRP | 0.342
RRIRARPPRLPRPRPRPDTVPRP | -0.125
RRIRARPPRLPRPRPRPDVAPRP | 1.35
RRIRARPPRLPRPRPRPDWNPRP | 0.0789
RRIRARPPRLPRPRPRPECAPRP | 1.5
RRIRARPPRLPRPRPRPECPPRP | 0.683
RRIRARPPRLPRPRPRPECSPRP | 1
RRIRARPPRLPRPRPRPEDCPRP | 0.243
RRIRARPPRLPRPRPRPEDTPRP | 0.625
RRIRARPPRLPRPRPRPEETPRP | -0.03
RRIRARPPRLPRPRPRPEFFPRP | 0.33
RRIRARPPRLPRPRPRPEGMPRP | 1.2
RRIRARPPRLPRPRPRPEHNPRP | -0.0925
RRIRARPPRLPRPRPRPEHPPRP | 0.652
RRIRARPPRLPRPRPRPEIFPRP | 0.273
RRIRARPPRLPRPRPRPEKDPRP | 0.366
RRIRARPPRLPRPRPRPEKFPRP | -0.0388

Sequence | shrunken log2 fold change
RRIRARPPRLPRPRPRPEKGPRP | -0.0434
RRIRARPPRLPRPRPRPEKMPRP | 0.706
RRIRARPPRLPRPRPRPELHPRP | 0.964
RRIRARPPRLPRPRPRPELPPRP | 1.5
RRIRARPPRLPRPRPRPEMMPRP | 1.12
RRIRARPPRLPRPRPRPEMRPRP | 1.19
RRIRARPPRLPRPRPRPENDPRP | 0.085
RRIRARPPRLPRPRPRPEPAPRP | 1.43
RRIRARPPRLPRPRPRPEPKPRP | 1.36
RRIRARPPRLPRPRPRPEPVPRP | 0.512
RRIRARPPRLPRPRPRPEQKPRP | 1.29
RRIRARPPRLPRPRPRPEREPRP | 1.05
RRIRARPPRLPRPRPRPERLPRP | 0.23
RRIRARPPRLPRPRPRPERPPRP | 0.556
RRIRARPPRLPRPRPRPESDPRP | 1.17
RRIRARPPRLPRPRPRPESGPRP | 0.793
RRIRARPPRLPRPRPRPETIPRP | 0.541
RRIRARPPRLPRPRPRPEVLPRP | 0.709
RRIRARPPRLPRPRPRPEVPPRP | 0.162
RRIRARPPRLPRPRPRPEWAPRP | 1.06
RRIRARPPRLPRPRPRPEWHPRP | 0.381
RRIRARPPRLPRPRPRPEYKPRP | -0.0123
RRIRARPPRLPRPRPRPFAHPRP | 0.128
RRIRARPPRLPRPRPRPFARPRP | -0.0584
RRIRARPPRLPRPRPRPFCIPRP | -0.0716
RRIRARPPRLPRPRPRPFCYPRP | 0.0576
RRIRARPPRLPRPRPRPFDTPRP | -0.333
